Reference: paper PMC4317013 (The Journal of Biological Chemistry, 2014)

What was measured:
[1] = target: T1, testisin (Mus musculus, UniProt Q9JHJ7); assay: Cleavage by and complex formation with testisin in solution (SDS-PAGE, Western blotting, Edman degradation); assay type: biochemical; details: for N-terminal testisin cleavage site: Edman degradation of testisin-cleaved protein, Fig. 1D
T1 construct: purchased R&D Systems
Experimental: Activation of protestisin and testisin (R&D Systems, Minneapolis, MN) activity assays were performed according to the instructions of the supplier. Inhibition of testisin by PCI was tested on 96-well F16 Black MaxiSorp plates (Nunc, Roskilde, Denmark). 20 nM testisin was incubated with 200 or 1000 nM (final concentration) rhPCI or rmPCI in the absence or presence of 5 units/ml heparin in 100 μl of testisin buffer (50 mM Tris, 150 mM NaCl, 10 mM CaCl2, pH 7.5). After a 30-min incubation at 37 °C, 100 μl of 0.2 mM fluorogenic substrate I-1295 (Bachem, Bubendorf, Switzerland) dissolved in testisin buffer was added to each well. Plates were read every 15 s at an excitation wavelength of 380 nm and an emission wavelength of 460 nm using a Synergy H4 microplate reader (BioTek, Seattle, WA). The 5-min time point was used to calculate the relative activity. The amidolytic activity of testisin in the absence of PCI was assigned to 1, and for each reaction, the remaining testisin activity was calculated. To detect the possible complex formation between PCI and testisin, different concentrations (7.5–960 nM) of rhPCI or rmPCI, respectively, were incubated with 30 nM testisin for varying times (0–40 min) at 37 °C. The reactions were stopped by adding an equal volume of 2× Laemmli buffer containing 5% 2-mercaptoethanol ([40]). Samples were heated at 99 °C for 5 min followed by sodium dodecyl sulfate-polyacrylamide electrophoresis (SDS-PAGE) and Western blotting. To determine the testisin cleavage sites in human and mouse PCI, WT PCI or PCI mutants (rhPCI, hPCI-R11G, hPCI-R354G, rmPCI, mPCI-A18G, or mPCI-R352G, respectively; 300 nM each) were incubated with 30 nM testisin for 1 h at 37 °C. […]
SDS-PAGE was performed according to the method of Laemmli ([40]) using 10% acrylamide gels. […] The signal was detected using SuperSignal West Femto or SuperSignal West Pico chemiluminescent substrate (Thermo Fisher Scientific, Rockford, IL) with a FluorChem HD2 imaging system (ProteinSimple, Santa Clara, CA). […]

[2] = system: Jurkat T cells
Experimental: For the internalization experiment, cells were seeded at 1 × 10^6 cells/ml with 8 ml of full medium into 75-cm^2 flasks and treated with respective 200 nM proteins for 2 h or 5 μM peptides for 1 h.
Human A+-helix peptide ([…]; corresponding to the cleaved N-terminal peptide of hPCI), mouse A+-helix peptide ([…]; corresponding to the cleaved N-terminal peptide of mPCI), and TAT peptide ([…]) ([42]) were synthesized and labeled with FITC (GenScript, Piscataway, NJ). […] Fluorescence-activated cell sorting (FACS) analysis was performed with a FACSCalibur flow cytometer (BD Biosciences). Further data analysis was done with Flowing Software ([43]). For confocal microscopy, the fixed cells were suspended with Vectashield mounting medium containing […] DAPI (Vector Laboratories, Burlingame, CA) and transferred onto slides. Confocal images were taken by a Zeiss LSM-510 Meta confocal microscope system (Zeiss, Jena, Germany). Zeiss LSM Image Browser software was applied for further analysis of images.

[3] = system: testisin; assay: 30 nM testisin in testisin buffer (50 mM Tris, 150 mM NaCl, 10 mM CaCl2, pH 7.5); details: 37 °C, up to 120 min
[4] = system: Jurkat T cells; assay: Internalization of PCI forms by Jurkat T cells (cell lysis, subcellular fractionation, Western blotting); assay type: cell-based, human; details: 200 nM protein, 2 h, 37 °C, Western blotting with anti-mPCI IgG; for internalization by Jurkat T cells (whole cell lysate and subcellular fractions): full medium, Fig. 3
Experimental: SDS-PAGE was performed according to the method of Laemmli ([40]) using 10% acrylamide gels. Following electrophoresis, the proteins were transferred onto PVDF membranes. The membranes were blocked with blotting buffer (5% skim milk powder and 0.05% Tween 20 in PBS, pH 7.4) for 1 h at room temperature. Rabbit anti-mPCI IgG (diluted 1:1000; homemade), rabbit anti-hPCI IgG (diluted 1:1000; homemade), monoclonal mouse anti-penta-His IgG (diluted 1:500; Qiagen, Hilden, Germany), rabbit anti-testisin IgG (diluted 1:500; Abgent, San Diego, CA), mouse monoclonal anti-A1AT(diluted 1:2000; Fisher Scientific GmbH), rabbit anti-actin IgG (diluted 1:2000; Sigma-Aldrich), monoclonal mouse anti-lamin B2 IgG (diluted 1:2000; Abcam, Cambridge, UK), and monoclonal mouse anti-Hsp 90 IgG (diluted 1:2000; Exbio, Prague, Czech) were used, respectively, in blotting buffer. The respective secondary antibodies were horseradish peroxidase-conjugated donkey anti-rabbit IgG (diluted 1:5000; GE Healthcare Handels GmbH) and horseradish peroxidase-conjugated sheep anti-mouse IgG (diluted 1:5000; GE Healthcare Handels GmbH). The signal was detected using SuperSignal West Femto or SuperSignal West Pico chemiluminescent substrate (Thermo Fisher Scientific, Rockford, IL) with a FluorChem HD2 imaging system (ProteinSimple, Santa Clara, CA).
Jurkat T cells were incubated in full medium with 200 nM rmPCI, testisin-cleaved rmPCI, or ΔR1-A18 mPCI, respectively, at 37 °C for 2 h. 1 × 10^7 cells were harvested and washed three times with PBS. To prepare whole cell lysates, cell pellets were resuspended and incubated in CelLytic M cell lysis buffer at room temperature for 10 min and applied to electrophoresis. Subcellular fractions were prepared as described previously ([41]) with some modifications. In brief, cell pellets were resuspended in 125 μl of buffer A (10 mM Hepes, pH 7.9, 10 mM KCl, 1.5 mM MgCl2, 0.34 M sucrose, 10% glycerol, 1 mM DTT, 0.1% Triton X-100) containing 10 μl of protease inhibitor mixture P8340 (Sigma-Aldrich) and incubated for 8 min. […]

[5] = target: aPC (Homo sapiens, UniProt P04070); assay: Interaction of PCI with other proteases: aPC; assay type: biochemical; details: 300 nM rmPCI, 30 nM protease, 37 °C, Fig. 1F
Chain of aPC (P04070 212-461 limits assumed): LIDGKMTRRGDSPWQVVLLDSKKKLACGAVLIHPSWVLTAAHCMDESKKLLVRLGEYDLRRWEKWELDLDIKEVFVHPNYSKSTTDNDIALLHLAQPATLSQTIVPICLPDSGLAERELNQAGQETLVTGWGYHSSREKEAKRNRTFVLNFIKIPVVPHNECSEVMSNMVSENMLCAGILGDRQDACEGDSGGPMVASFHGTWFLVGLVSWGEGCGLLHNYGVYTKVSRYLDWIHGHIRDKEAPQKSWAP
Chain of aPC (P04070 43-197 partner limits assumed): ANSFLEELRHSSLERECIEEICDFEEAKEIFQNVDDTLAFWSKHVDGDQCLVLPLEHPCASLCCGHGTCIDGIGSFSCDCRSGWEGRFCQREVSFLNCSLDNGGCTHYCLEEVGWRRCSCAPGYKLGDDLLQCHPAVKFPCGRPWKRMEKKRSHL
Experimental: (§1) Urokinase, aPC, thrombin, or enteropeptidase (30 nM each) was incubated with 300 nM rmPCI, respectively, for different periods (10 or 120 min) at 37 °C. The reactions were stopped by adding an equal volume of 2× Laemmli buffer containing 5% 2-mercaptoethanol ([40]). Samples were heated at 99 °C for 5 min followed by SDS-PAGE and Western blotting.
(§2) SDS-PAGE was performed according to the method of Laemmli ([40]) using 10% acrylamide gels. Following electrophoresis, the proteins were transferred onto PVDF membranes. The membranes were blocked with blotting buffer (5% skim milk powder and 0.05% Tween 20 in PBS, pH 7.4) for 1 h at room temperature. […] The signal was detected using SuperSignal West Femto or SuperSignal West Pico chemiluminescent substrate (Thermo Fisher Scientific, Rockford, IL) with a FluorChem HD2 imaging system (ProteinSimple, Santa Clara, CA).

[6] = target: Urokinase (Homo sapiens, UniProt P00749); assay: Interaction of PCI with other proteases: urokinase; assay type: biochemical; details: 300 nM rmPCI, 30 nM protease, 37 °C, Fig. 1F
Experimental: as §1, §2

[7] = target: enteropeptidase (Homo sapiens, UniProt P98073); assay: Interaction of PCI with other proteases: enteropeptidase; assay type: biochemical; details: 300 nM rmPCI, 30 nM protease, 37 °C, Fig. 1F
Chain of enteropeptidase (P98073 whole entry, species assumed): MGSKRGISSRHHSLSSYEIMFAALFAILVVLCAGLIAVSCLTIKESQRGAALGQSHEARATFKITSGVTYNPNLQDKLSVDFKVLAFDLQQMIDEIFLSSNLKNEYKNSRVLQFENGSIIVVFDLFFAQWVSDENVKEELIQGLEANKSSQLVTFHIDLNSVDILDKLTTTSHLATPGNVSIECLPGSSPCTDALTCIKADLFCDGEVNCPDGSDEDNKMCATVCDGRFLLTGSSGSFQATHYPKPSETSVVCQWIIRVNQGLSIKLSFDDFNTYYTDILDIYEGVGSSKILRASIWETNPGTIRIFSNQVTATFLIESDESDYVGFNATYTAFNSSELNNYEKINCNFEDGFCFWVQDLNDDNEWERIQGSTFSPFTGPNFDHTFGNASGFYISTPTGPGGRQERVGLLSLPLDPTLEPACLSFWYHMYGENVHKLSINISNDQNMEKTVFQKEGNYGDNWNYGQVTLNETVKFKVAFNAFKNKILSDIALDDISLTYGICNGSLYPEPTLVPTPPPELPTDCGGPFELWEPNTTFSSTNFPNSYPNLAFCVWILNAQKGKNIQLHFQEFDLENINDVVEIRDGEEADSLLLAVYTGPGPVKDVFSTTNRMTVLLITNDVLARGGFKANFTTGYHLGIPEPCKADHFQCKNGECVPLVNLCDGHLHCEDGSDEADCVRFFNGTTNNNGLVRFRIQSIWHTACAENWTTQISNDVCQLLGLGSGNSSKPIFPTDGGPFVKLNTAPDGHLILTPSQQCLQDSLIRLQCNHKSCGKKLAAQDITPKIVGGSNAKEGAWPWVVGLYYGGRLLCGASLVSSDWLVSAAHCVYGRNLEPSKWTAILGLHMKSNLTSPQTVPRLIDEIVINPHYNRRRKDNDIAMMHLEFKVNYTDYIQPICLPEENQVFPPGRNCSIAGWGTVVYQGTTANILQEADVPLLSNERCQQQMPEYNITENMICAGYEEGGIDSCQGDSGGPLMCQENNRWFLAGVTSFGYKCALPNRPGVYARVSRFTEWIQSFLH
Experimental: as §1, §2

T1 sequence (Q9JHJ7 55-298 limits assumed): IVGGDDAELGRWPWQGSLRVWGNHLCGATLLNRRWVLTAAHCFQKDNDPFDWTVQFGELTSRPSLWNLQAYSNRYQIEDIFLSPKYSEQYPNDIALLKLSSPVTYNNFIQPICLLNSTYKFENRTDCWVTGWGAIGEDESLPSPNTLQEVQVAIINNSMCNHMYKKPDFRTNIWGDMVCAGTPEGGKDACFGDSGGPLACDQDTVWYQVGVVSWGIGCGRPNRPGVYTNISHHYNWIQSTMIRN

A1AT: serum-derived human α1-antitrypsin (Sigma-Aldrich), another serpin [reference compound]
cleavage by testisin (Western blotting) ([1]; 300 nM protein, 30 nM testisin, 0–40 min, 37 °C, testisin buffer, Fig. 1A, B): Neither cleavage

HRHHPREMKKR [human A+-helix-FITC]
intracellular localization (confocal microscopy) [2]: cytosolic and nuclear localization

HRHHPREMKKRVEDLHVGATV...
cleaved bond [3]: Arg11-Val12

RRHSHSKKKKAKESSVGA [mouse A+-helix-FITC]
intracellular localization (confocal microscopy) [2]: cytosolic and nuclear localization

B1: rhPCI: recombinant human protein C inhibitor with N-terminal His tag (protein, UniProt P05154 26-406, looked up)
Plasma serine protease …: EMKKRVEDLHVGATVAPSSRRDFTFDLYRALASAAPSQSIFFSPVSISMSLAMLSLGAGSSTKMQILEGLGLNLQKSSEKELHRGFQQLLQELNQPRDGFQLSLGNALFTDLVVDLQDTFVSAMKTLYLADTFPTNFRDSAGAMKQINDYVAKQTKGKIVDLLKNLDSNAVVIMVNYIFFKAKWETSFNHKGTQEQDFYVTSETVVRVPMMSREDQYHYLLDRNLSCRVVGVPYQGNATALFILPSEGKMQQVENGLSEKTLRKWLKMFKKRQLELYLPKFSIEGSYQLEKVLPSLGISNVFTSHADLSGISNHSNIQVSEMVHKAVVEVDESGTRAAAATGTIFTFRSARLNSQRLVFNRPFLMFIVDNNILFLGKVNRP
modifications: N-terminal His tag
N-terminal testisin cleavage site [1]: between Arg^11 and Val^12

B2: rmPCI: recombinant mouse protein C inhibitor with N-terminal His tag (protein, UniProt P70458 25-405, looked up)
Plasma serine protease …: SKKKKAKESSVGAVGPPSSKDFAFRLYRALVSESPGQNVFFSPLSVSMSLGMLSLGAGLKTKTQILDGLGLSLQQGQEDKLHKGFQQLLQRFRQPSDGLQLSLGSALFKDPAVHIRDDFLSAMKTLYMSDTFSTNFGNPEIAKKQINNYVAKQTKGKIVDFIKDLDSTHVMIVVNYIFFKAKWQTAFSETNTHKMDFHVTPKRTTQVPMMNREDGYSYYLDQNISCTVVGIPYQGNAIALFILPSEGKMKQVEDGLDERTLRNWLKMFTKRRLDLYLPKFSIEATYKLENVLPKLGIQDVFTTHADLSGITDHTNIKLSEMVHKSMMEVEESGTTAAAITGAIFTFRSARPSSLKIEFTRPFLLTLMEDSHILFVGKVTRP
modifications: N-terminal His tag
internalization by Jurkat T cells (whole cell lysate and subcellular fractions) [4]: taken up by Jurkat T cells and translocated to the nucleus | detection in subcellular fractions of Jurkat T cells ([4]; Fig. 4D): detected in the nuclear envelope fraction | cleavage by aPC ([5]; 10 or 120 min, anti-mPCI IgG): appearance of a cleaved PCI form | N-terminal cleavage by aPC ([5]; 120 min, anti-penta-His IgG, N-terminally cleaved form in aPC-PCI complex not completely ruled out): do not cleave the N terminus | cleavage by urokinase ([6]; 10 or 120 min, anti-mPCI IgG): appearance of a cleaved PCI form | N-terminal cleavage by urokinase ([6]; 120 min, anti-penta-His IgG): do not cleave the N terminus | N-terminal testisin cleavage site [1]: between Ala^18 and Val^19 | cleavage by enteropeptidase ([7]; 10 or 120 min, anti-mPCI IgG): appearance of a cleaved PCI form | N-terminal cleavage by enteropeptidase ([7]; 120 min, anti-penta-His IgG): do not cleave the N terminus

B3: rmPCI preincubated with U937 cells: rmPCI preincubated with testisin-expressing U937 cells (protein, UniProt P70458 25-405, looked up)
Plasma serine protease …: SKKKKAKESSVGAVGPPSSKDFAFRLYRALVSESPGQNVFFSPLSVSMSLGMLSLGAGLKTKTQILDGLGLSLQQGQEDKLHKGFQQLLQRFRQPSDGLQLSLGSALFKDPAVHIRDDFLSAMKTLYMSDTFSTNFGNPEIAKKQINNYVAKQTKGKIVDFIKDLDSTHVMIVVNYIFFKAKWQTAFSETNTHKMDFHVTPKRTTQVPMMNREDGYSYYLDQNISCTVVGIPYQGNAIALFILPSEGKMKQVEDGLDERTLRNWLKMFTKRRLDLYLPKFSIEATYKLENVLPKLGIQDVFTTHADLSGITDHTNIKLSEMVHKSMMEVEESGTTAAAITGAIFTFRSARPSSLKIEFTRPFLLTLMEDSHILFVGKVTRP
modifications: preincubated with U937 cells
internalization by Jurkat T cells (whole cell lysate and subcellular fractions) [4]: not detected inside Jurkat T cells
